Measured values taken from patent publication US20170096492A1, “DOSAGE AND ADMINISTRATION OF ANTI-IGF-1R, ANTI-ErbB3 BISPECIFIC ANTIBODIES, USES THEREOF AND METHODS OF TREATMENT [sequence]” (Merrimack Pharmaceuticals, Inc., priority 2014, published 2017).
“Also recorded” adds a separate entry of the source.

Tests used:
[1] = system: CFPAC-1 pancreatic cancer cells; test: Receptor ubiquitination, immunoprecipitation and immunoblotting; type: cell-based, human; details: 500 nM MM-141 20 minutes after 2 hours 1 μM epoxomicin
Excerpt: Cell lysates were immunoprecipitated (IP) with an IGF-1R (FIG. 33C) or ErbB3 (FIG. 33D) antibody, and then immunoblotted (IB) for IGF-1R, ErbB3, or ubiquitin protein (Ub) expression by western blotting.

[2] = system: CFPAC-1 pancreatic cancer cells; test: Total ErbB3 and total IGF-1R ELISA (Example 20); type: cell-based, human; details: 50 nM, relative to vehicle control
Method: CFPAC-1 pancreatic cancer cells were seeded at 65% confluence in 10% serum-containing medium and incubated in 96-well plates overnight. […] After treatment, cells were harvested and protein lysates generated. Changes in ErbB3 and IGF-1R levels across all treatments were evaluated by total ErbB3 or total IGF-1R ELISA, respectively.

[3] = system: BxPC-3 derived xenograft tumors; test: BxPC-3 xenograft PD, western blot; type: in vivo, mice; details: MM-141 30 mpk i.p. Day 0, 3, 6 co-administered with gemcitabine 150 mpk
Excerpt: For the PD studies described in FIGS. 6A-B and FIGS. 9 A-B, nu/nu female mice were inoculated with 8×10^6 DU145 or 5×10^6 BxPC-3 cells, respectively, in 1:1 Matrigel® suspension. […] Tumor lysates were generated and subjected to western blot analysis.

[4] = system: IGF-1R and ErbB3 receptors; test: Receptor expression ELISA versus monospecific antibodies (Example 31); type: cell-based; details: 50 nM, four hours post-treatment, compared with monospecific antibodies
Method: Cell lysates were harvested four hours post-treatment with antibodies as indicated in FIGS. 33A and 33B (50 nM of each antibody) and changes in receptor expression were measured by ELISA. All ELISA measurements are normalized to vehicle (PBS) treatment, and these measurements are expressed relative to a vehicle treated control value of 1.

[5] = system: patients with solid tumors; test: Phase 1 dose escalation study, MM-141 monotherapy (Arm A): safety and disease response; type: in vivo, human
Excerpt: Adverse events that were reported with a frequency>15% included: vomiting (7/15), nausea (6/15), fatigue (4/15), abdominal pain (4/15), increased AP (4/15), dyspnea (4/15), diarrhea (3/15), anemia (3/15), increased AST (3/15), and rash (3/15). […] The safety, tolerability, PK and PD profiles support weekly and biweekly MM-141 dosing.

[6] = system: total IGF-1 in serum; test: Phase 1 PD analysis of total IGF-1 in serum (Quantikine ELISA); type: in vivo, human
Method: (§1) Serum for PK and PD analysis was prepared by drawing whole blood into red top tubes, clotting 30 minutes at 4-8° C. and spinning down in a refrigerated centrifuge. Serum was aliquotted and frozen immediately after centrifugation. PD analysis of total IGF-1 in serum was performed using Human IGF-I Quantikine® ELISA Kit (R&D Systems, Minneapolis, Minn.) according to the manufacturer's instructions. For the PK analysis, in brief, ELISA plates were plates were coated with IGF-1R (R&D Systems) in PBS and incubated overnight at 4° C. Plates were washed, blocked, and then samples and standards were added to plates and incubated for 2 hr at room temperature. Plates were washed and ErbB3-His was added for 1 hr at room temperature. Plates were washed and anti-His-HRP (Abeam, Cambridge, Mass.) was added for 1 hr at room temperature. Plates were developed using TMB and STOP solution and absorbance was read at 450 nm. PK parameters were analyzed using descriptive statistics including the median, mean and 95% confidence intervals around parameter estimates by dose level. All PK parameters included Cmax, Tmax, AUC (area under the concentration curve), clearance, volume of distribution at steady state (Vdss), and the terminal elimination half-life. Estimation of the PK parameters was performed using standard non-compartmental methods.

[7] = system: platinum-sensitive (Peol, PEA1 and OvCAR5) and platinum-resistant (Peo4 and PEA2) ovarian cancer cells; test: CTG cell viability, paclitaxel with IGF-1 or HRG, three-dimensional ovarian cultures; type: cell-based; details: paclitaxel 10-100 nM, IGF-1 or HRG 0-50 nM, MM-141 1 μM, 2% serum
Method: The cell viability assay (FIGS. 17A-B) was carried out using a CellTiter-Glo® (CTG) assay (Promega), which determines the number of viable cells in a culture based on quantitation of the ATP present. In FIGS. 17A-B, Peol, Peo4, PEA1, PEA2 and OvCAR5 cells were grown in 2% serum alone or with exogenous IGF-1 or HRG added (0-50 nM).

[8] = Phase 1 PK analysis of serum MM-141 (ELISA, non-compartmental); type: in vivo, human; details: range
Method: as §1

[9] = system: hepatocellular carcinoma tumor biopsies; test: Immunohistochemistry of pre- and post-treatment tumor biopsies (cohort 4D); type: in vivo, human; details: post- vs pre-treatment, MM-141 20 mg/kg weekly, sorafenib-refractory HCC
Excerpt: Formalin fixed, paraffin embedded biopsy samples were sectioned at 5 μm, processed and stained for IGF-1R (G11 clone detection antibody, Ventana) and ErbB3 (clone D22 antibody, Cell Signaling Technology).

[10] = patients with event / 15 patients dosed, all dose levels

## MM-141: polyvalent bispecific antibody P4-G1-M1.3, anti-IGF-1R and anti-ErbB3; heavy chain SEQ ID NO: 3, light chain SEQ ID NO: 4
[1]
  IGF-1R and ErbB3 receptor ubiquitination: induction of ubiquitination; also recorded: enhanced receptor ubiquitination
[2]
  total ErbB3 protein level: potently down-regulates
  total IGF-1R protein level: potently down-regulates
[3]
  gemcitabine-induced receptor (IGF-1R, ErbB3) up-regulation: reversed the receptor up-regulation
[4]
  decrease of ErbB3 expression level: to a greater extent
  decrease of IGF-1R expression level: to a greater extent
[5]; monotherapy 6, 12, 20 mg/kg q7d or 40 mg/kg q14d, 15 patients
  dose-limiting toxicities: No dose-limiting toxicities were observed; also recorded: No DLTs were observed
[5]; patients with Ewing's Sarcoma (1) and parotid gland carcinoma (1)
  disease stabilization: Disease stabilization was observed
[5]; [10]
  adverse events reported with a frequency>15%: abdominal pain: 4/15
  adverse events reported with a frequency>15%: anemia: 3/15
  adverse events reported with a frequency>15%: diarrhea: 3/15
  adverse events reported with a frequency>15%: dyspnea: 4/15
  adverse events reported with a frequency>15%: fatigue: 4/15
  adverse events reported with a frequency>15%: increased AP: 4/15
  adverse events reported with a frequency>15%: increased AST: 3/15
  adverse events reported with a frequency>15%: nausea: 6/15
  adverse events reported with a frequency>15%: rash: 3/15
  adverse events reported with a frequency>15%: vomiting: 7/15
[6]; 6 mg/kg cohort
  increase in serum total IGF-1: approximately two-fold in 1/3 patient samples
[6]; 12 mg/kg cohort
  increase in serum total IGF-1: approximately two-fold in 1/3 patient samples
[6]; 20 mg/kg, all patient samples
  increase in serum total IGF-1: approximately a two-fold increase
[6]; 40 mg/kg, all patient samples
  increase in serum total IGF-1: approximately two to four fold increases
[7]
  resistance to cytotoxic effect of paclitaxel caused by IGF-1 or heregulin: resistance was reversed
[8]; 6 mg/kg q7d
  Half-lives: 2.4 to 6.3 days
[8]; 12 mg/kg q7d
  Half-lives: 2.1 to 2.9 days
[8]; 20 mg/kg q7d
  Half-lives: 3.3 to 3.4 days
[8]; 40 mg/kg q14d
  Half-lives: 3.2 to 9.9 days
[9]
  ErbB3 level in tumor biopsy: decreased; also recorded: Down-regulation
  IGF-1R level in tumor biopsy: decreased; also recorded: Down-regulation
